Results taken from paper PMC9663306.

Assay: flow cytometry of surface IL-17RC, ST2 cells
Conditions: glycan lost; control: SF-IL-17RCWT

B1: IL-17RC: SF-IL-17RCMutE (protein)
parent chain: MPVSWFLLSLALGRNPVVVSLERLMEPQDTARCSLGLSCHLWDGDVLCLPGSLQSAPGPVLVPTRLQTELVLRCPQKTDCALCVRVVVHLAVHGHWAEPEEAGKSDSELQESRNASLQAQVVLSFQAYPIARCALLEVQVPADLVQPGQSVGSAVFDCFEASLGAEVQIWSYTKPRYQKELNLTQQLPDCRGLEVRDSIQSCWVLPWLNVSTDGDNVLLTLDVSEEQDFSFLLYLRPVPDALKSLWYKNLTGPQNITLNHTDLVPCLCIQVWSLEPDSERVEFCPFREDPGAHRNLWHIARLRVLSPGVWQLDAPCCLPGKVTLCWQAPDQSPCQPLVPPVPQKNATVNEPQDFQLVAGHPNLCVQVSTWEKVQLQACLWADSLGPFKDDMLLVEMKTGLNNTSVCALEPSGCTPLPSMASTRAARLGEELLQDFRSHQCMQLWNDDNMGSLWACPMDKYIHRRWVLVWLACLLLAAALFFFLLLKKDRRKAARGSRTALLLHSADGAGYERLVGALASALSQMPLRVAVDLWSRRELSAHGALAWFHHQRRRILQEGGVVILLFSPAAVAQCQQWLQLQTVEPGPHDALAAWLSCVLPDFLQGRATGRYVGVYFDGLLHPDSVPSPFRVAPLFSLPSQLPAFLDALQGGCSTSAGRPADRVERVTQALRSALDSCTSSSEAPGCCEEWDLGPCTTLE
For B1, which localisation_or_trafficking is on record?
Its localisation_or_trafficking is “decreases”.
